Test results: publication PMC6828947, “The Cotton GhWRKY91 Transcription Factor Mediates Leaf Senescence and Responses to Drought Stress in Transgenic Arabidopsis thaliana”

Legend:
GhWRKY91 [1] = target: T1, GhWRKY91 (Gossypium hirsutum (CCRI10), UniProt A0A068LD65 1-273); assay: EMSA; LightShift Chemiluminescent EMSA Kit (Thermo Scientific); buffer, salt, pH and temperature not stated; conditions: protein: recombinant; tags: N-terminal GST, removed by digestion after purification; label: biotin end label
GhWRKY91 [2] = target: T1, GhWRKY91; assay: competition; excess unlabelled probe against labelled GhWRKY17 probe; LightShift Chemiluminescent EMSA Kit (Thermo Scientific); buffer, salt, pH and temperature not stated; conditions: protein: recombinant; tags: N-terminal GST, removed by digestion after purification

T1 sequence (A0A068LD65 entry or part of it): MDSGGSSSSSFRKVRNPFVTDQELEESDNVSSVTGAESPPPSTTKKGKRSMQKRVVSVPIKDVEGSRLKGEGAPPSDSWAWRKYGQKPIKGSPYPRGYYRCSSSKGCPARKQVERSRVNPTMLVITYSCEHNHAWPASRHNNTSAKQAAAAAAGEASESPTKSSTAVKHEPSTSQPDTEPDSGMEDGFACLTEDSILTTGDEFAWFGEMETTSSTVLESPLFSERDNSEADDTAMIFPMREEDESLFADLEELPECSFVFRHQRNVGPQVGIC

Binder	binding result (GhWRKY91 [1])	binding result (GhWRKY91 [2])
GhWRKY17 promoter W-box probe (dsDNA) DNA 1: AATTTCAAACGGCTAATCCCCACCTTTTGACCTTATCTCTTGTCAGTGACCCA DNA 2: TGGGTCACTGACAAGAGATAAGGTCAAAAGGTGGGGATTAGCCGTTTGAAATT	binds	
GhWRKY17 promoter W-box probe, unlabelled competitor (dsDNA) DNA 1: AATTTCAAACGGCTAATCCCCACCTTTTGACCTTATCTCTTGTCAGTGACCCA DNA 2: TGGGTCACTGACAAGAGATAAGGTCAAAAGGTGGGGATTAGCCGTTTGAAATT		binds
GhAPX1 promoter W-box probe (dsDNA) DNA 1: TCCCCGACGTTCCGACAAGTTTTGACTATTTTATTTTCTTAAAATAAAAAGC DNA 2: GCTTTTTATTTTAAGAAAATAAAATAGTCAAAACTTGTCGGAACGTCGGGGA	no binding	
GhWRKY68 promoter W-box probe (dsDNA) DNA 1: GCACTGTTCAATATCCGTACAAGTGGTTGACCTACAATTGCCCGTCGATCC DNA 2: GGATCGACGGGCAATTGTAGGTCAACCACTTGTACGGATATTGAACAGTGC	no binding	
GhWRKY27a promoter W-box probe (dsDNA) DNA 1: GCGACTTGGTCAGCAATTGGAGTTTTGACCTTACCTCACTCTTCAGTCCAC DNA 2: GTGGACTGAAGAGTGAGGTAAGGTCAAAACTCCAATTGCTGACCAAGTCGC	no binding	
